# In the DeepSol protein solubility set:
# Test: soluble on expression in E. coli; label from the status in PepcDB or PDB records
row,Sequence,soluble on expression in E. coli
1,MRELRIESVHTNPYTLTLRMNGVTLNDKDDRQLLGWGNLLVNLEWSSIIDQTWTFEAIRIDKLMIQEERFVSGETRFSRLAAESSGPEAGKEKAEKEESAEMPALRIRDFKLENGILRFADNLKDVTAADDAEPKQVSLALQNIGLSVKDFTLQNDASFPLRLNGQLTKGGKLAFDGTFQLLPSPALEGNAEINELAFKQAAPYLQQFMNVQLENGTLTLNGQMSTNAQQPFAFKGSASINTLNIKEASNDETLLGWDSLQTGQFDLNIASKEIETAPIVVKGLSARVVINQDKTTNFGQLVVDTPADTKGDTNKSEETQPFGITIEGVELSDGDVQFADKSLPLPFSTSIHTLSGEVSTLSSDSSEPARVKFEGEVAEYGLAQVNGTVHAWHPTRQTTINVRFRNLQIPEYSPYTVNFAGRKIADGTMDLDLDYTVNEEKLDGQNNLVLHDLKLGEKMESSDAMDLPLDLAIALLQDSDGVIDLNLPVSGDVGNPQFDFGKVIQQAVGDAIKSVVTAPFSFLANLVGADSEEMGKVEFPEGRTHLLPPQRERIAKLREALNKRPALALELAGPFNQAFDAPALKEDKAMKVLQQRLAEEGSEVEEPSLTSESSQDAMEAIFSSHYPDTELEALKDRFTEKPSEASNEEKFDALAYRNHLAEKVIAAQSITNEELKAIANARAETVRDALVNNSESGISADRVRIREPQEVDSVEGERIAMELAVTTDLEHHHHHH,not soluble
2,MGSDKIHHHHHHMTVVEPNSDQKLDTAVATVLHEISSFQSFAVERDLEDVIERISKVFRISDIDAFRYYINKSISGLGKIYPLFNLEEVKEIDVNGYDEPVIVKLSDDNYYTTNIKLLANEVDSIAIRLAQLMGKKISTSDPLARGTLNNREVSITFGTEISPKGSSIRIARNDSGYDLKKFVESNGFSLESISYLKIAIENSKSIVIIGPHTELKYSALLFLMDLVDKEKKITYIGEKIPSRSPGNYIFMKTKEKSIFSSQIDRVSLINTAMRQRPDYIVIDTIEVVDLPSVIQAITTGHPTFTSIDIDSVSALVSAFSDSALDLGRDMVSVIDIVIEISESSDRISSIYEFDRFEHNDVLYDLVFSIDKTTEKLRYNGFSPMFRSMSNAMGKDDFHRYLENVRKITSELIENGLS,not soluble
3,MGHHHHHHSHMGKGTFVYRTTITSPHEEVWAFFSSPTNLQTLTKIPKVVLDSTSETTQGSEIEMKLFVLGIPFQWKAYIEAYNPPFSFTDVAIKMPFPIVYWRHTHRFTTEGERTVMIDEIQYEIKMANKLVIFFLRRMFRARESALHRYFQS,soluble
4,MTKDILILAVETSCDETSVSVIKNGRDILSNTVLSQIESHKRFGGVVPEVASRHHVEGITATINEALGDADVSIEDIDAIAVTEGPGLIGALLIGVNAAKALAFAYDKPLIPVHHIAGHIYANHIEEPLTFPLIALIVSGGHTELVYMKDHLSFEVIGETRDDAVGEAYDKVARTIGLNYPGGPQVDRLAAEGEDTYSFPRVWLDKDSYDFSFSGLKSAVINQLHNQRQKNIPIIEANVATSFQNSVVEVLTFKAIQACKEYGVQRLIVAGGVASNKGLRQSLADQCKVNDIQLTIPSPKLCTDNAAMIGVAGHYLYQQGRFADLALNGHSNIDLEEYSAE,not soluble
5,MAQHPPYCRNQPGKCQIPLRDLFDRAVVLSHYIHNLSSEMFSEFDKRYTHGRGFITKAINSCHTSSLATPEDKEQAQQMNQKDFLSLIVSILRSWNEPLYHLVTEVRGMQEAPEAILSKAVEIEEQTKRLLEGMELIVSQVHPETKENEIYPVWSGLPSLQMADEESRLSAYYNLLHCLRRDSHKIDNYLKLLKCRIIHNNNC,soluble
6,NNMFSRQAPHFAVTDYDGTLQLLEDGLVLQHDGNHPLALYDYLNDKELRTNLIKTQAARADSMTCRIEAVIQSFNHRMNTNRLVADK,not soluble
7,MGHHHHHHSHMWSSREIEDLGLTFAIAIDKGKETNTEKELKEEGGSYPKKDNITLTYQFVNEKAAGAGTSGGGGSGQGAQKAYINISETGDSLQQIGSEVALRRDREVFSPHLKVVVMSEDVLHTFPIDEMLDQFFRDNEIRLSCLVLSAKGEARDALQLKENGEIPAFRLIGLGENEHKVSRILPPMTLAKLIGKLHSGSSFLLQNVVAANGAVKYSGAAVINGKSKKMIGTLNEYETEGITWIRGEGKGGVVKSHDKKSQQTLAYDINKIKSRIQPIVKGKDISFHVDIESEGDLVENWNTKEALDTQFIDRLETTIENEVKKIVGQVLKKIQHDYKADVAGFDESFRLTYPHLWKRVKNNWDDTFSKADITYSVNVTITHFGTVKTQ,soluble
8,MQPNDITFYQRFEADILAGHKTISIRDDSESHFKAGDILRVGRFEDNQYFCNIEVLSVSPITLDELTQPHAKQENMGLDELKEVIRGIYPNEIIFWVIQFSLKEYFNEEKCVREIIITDRKFN,soluble
9,MGSDKIHHHHHHMGSYPDGKRIFVKMNTSPILPGLAREQIAPQLLWSRRLADGRDMCAQEWLTGKILTPYDMNRKQIVNILTRLHRSRPLMTQLSRLGYAMETPVDLLQSWQETAPDALRKNHFISEVMADLRQTIPGFREDHATIVHGDVRHSNWIETDSGLIYLVDWDSVRLTDRMFDVAHMLCHYISEHQWKEWLTYYGYKYNQTVLSKLYWYGQLSYLSQISKYYMNQDLENVNREIHGLRHFRDKYGKRR,not soluble
10,MSLNRKTPKTTDGLMRHIRDNKGIQINGSTEKNQLRNIGYFHGFKGYNFFLNKEEELNFEKFSELHALYSFDTEIKNLFYKHVMFCETAIKNRLLEIVCVNSGFDLDSLFQKSLTYYKSYSPGSSKYKKHLKNTTRLRRDIYDMIHEHCNSKPYIYHYIHQDRTVPLYAVFELFTLGNLVFFTRCMSQNLNIEAQKQLKLYSPAFDQSKDILGDIIDCMKGLRNAIAHNGVLYDCRFKTGETSNRLKEYLAVKMDIHNLDFDRIIDYLILLILICSGLSYSKAELQRIIRQFEQNLDFLRSKISESTYDKIIGVRARPKLRSLKNFINNLDFYLKTDEGHHHHHH,soluble
11,MIDRPDTGEGTNYLIVGSDSRAGMSAEEKKKLHTGSAEGKRTDSMMILHTGDNGSTLVSLPRDSDVEIPTFKGSTSGKTYPGTGRHVKLNAAYAEDGPELLVRTIEYNTGLHIDHYVEIGFAGFANIVDSVGGVEMTLDKGFKDTFSGADFKAGKQTLNGEQALAFVRTRHAFAASDLERTKNQQKFLSALAHQVATPSTVLNPFKLYPTLSSGLDTLIVDKDMGLFDLADMFWAMKGVTGGDGTSMNMPISGSSGGNLVWDKAKVKALVNELKNDEKVTVSGNLEHHHHHH,soluble
12,SETPEVPVGSLIDFGPEAPTSSPLEAPPPVLQDGDGSLGDGASESETTESADSENDMGESPSHPSWDQDRRSSSNESFSSNQSTESTQDEETLALRDFMRGYVEKIFSGGEDLDQEEKAKFGEYCSSENGKGREWFARYVSAQRCNSKCVSEATFYRLVQSFAVVLFECHQMDDFGPAKNLMTMCFTYYHIGKPQLLPPESREKPAGSIDSYLKSANSWLAEKKDIAERLLKNTSARTENVKGFFGGLETKLKGPLARRNEEDENKPQEKRPRAVTAYSPEDEKKGEKIYLYTHLKQQPIW,soluble
13,HISSQQHEKAIKSYFDEAQTQGVIIIKEGKNLSTYGNALARANKEYVPASTFKMLNALIGLENHKATTNEIFKWDGKKRTYPMWEKDMTLGEAMALSAVPVYQELARRTGLELMQKEVKRVNFGNTNIGTQVDNFWLVGPLKITPVQEVNFADDLAHNRLPFKLETQEEVKKMLLIKEVNGSKIYAKSGWGMGVTPQVGWLTGWVEQANGKKIPFSLNLEMKEGMSGSIRNEITYKSLENLGII,soluble
14,MALNLKQRLEQKFEEEIRFFKGMVSQPKKVGAIVPTSSITAKKMASVINPHSGLPVLELGPGTGVITKAILARGIKPESLTAIEYSTDFYNQLLRSYPGVNFVNGDAFDLDATLGEHKGQMFDSVISAVPMLNFPMAARIKLLDELLKRVPHGRPVVQISYGPISPIVAQPHLYHIRHFDFIVRNIPPAQLWTYTRALEHHHHHH,not soluble
15,MKIQFNRFLTRSLLTAALTGAASMAAAATMEVYKSPTCGCCAKWVDHMRDNGFTVNIHDIGNDEARAEAGILPELGSCHTALVNGYAIEGHVPADDIKQLLKERPRAVGLSAPGMPHGSPGMETGRVDSYNVLLIRKPGDKRSATEIYNRYGPGKSGAAEKTSENSTTDSVLRLK,not soluble
